Measured values taken from patent US20040014636A1, “Pharmaceutical compositions comprising a modulator of adamts-1” (priority 2000, published 2004).

Key:
[1] = tested on: ADAMTS-1 message in THP-1 cells; experiment: Real time PCR of ADAMTS-1 message in THP-1 cells; format: cell-based, human; settings: PMA 160 nM, 0 to 8+1 days
Description: THP-1 cells were cultured in RPMI 1640 media supplemented with 10% FBS, penicillin-Streptomycin, sodium pyruvate, and nonessential amino acids (Sigma). PMA (Sigma) was dissolved in ethanol and diluted in the medium at a final concentration of 160 nM. LDL was equilibrated in PBS and diluted to 400 μg/mL and oxidized with 10 μM CuSO4 for 2.5 hours at 37 degrees C. The mildly oxidized LDL was equilibrated in RPMI 1640 and filter sterilized.
THP-1 cells were cultured in media containing PMA for 0, 2, 4, 8, and 8+1 days. Another set of plates were incubated with PMA for 8+1 days, with the mildly oxidized LDL also present in the last day. RNA was extracted and ADAMTS-1 message was analyzed by real time PCR.

[2] = tested on: 38 amino acid peptide derived from the published cleavage site on the proteoglycan aggrecan
[3] = biological target: versican (large proteoglycan population secreted by primary human aortic smooth muscle cells) (UniProt P13611)
versican = experiment: Digestion of proteoglycans from aortic smooth muscle cells, size exclusion chromatography; format: biochemical, human; settings: total proteoglycan from primary aortic smooth muscle cells incubated with ADAMTS-1 before size exclusion chromatography
Description: Human aortic smooth muscle cells were purchased from Clonetics (BioWhittaker) and cultured according to supplier. For preparation of total proteoglycan population (total PG), AoSMCs were seeded at 3000 cells/cm2 in SmBM2 media (4×80 cm2 flasks). 5 days later, the cells were washed with Dulbecco's PBS and BME-Diploid medium with FBS was added to the cells. 1 day later, fresh DME-Diploid medium without FBS, containing 35S-Sulfate 33 μCi/mL and 3H-Leucine 17 μCi/mL, 15 mL/bottle and incubated for 3 days. The medium was transferred and dialyzed against binding buffer containing 8M urea, 2 mM EDTA, 0.5% Triton X-100, and 20 mM Tris-HCl, pH 7.5, for 48 hours and applied to a pre-equilibrated Hi-Trap Q column. After washing with 25 mL of Elution buffer A (binding buffer+0.25 M NaCl, proteoglycan population is eluted with a linear salt gradient: 0.25-3 M NaCl in binding buffer. Total counts in each fraction were counted by liquid scintillation counting. The fractions containing PGs were pooled, dialyzed against water, lyophilized and stored at −20 degrees C. until use (‘total PG’).
Separation by size exclusion chromatography was performed using a Superdex 200 HR 10/30 from Amersham Pharmacia biotech. […] 1 mL fractions were collected and 35S measured for each fraction.

Chain of UniProt P13611 (P13611 21-3396): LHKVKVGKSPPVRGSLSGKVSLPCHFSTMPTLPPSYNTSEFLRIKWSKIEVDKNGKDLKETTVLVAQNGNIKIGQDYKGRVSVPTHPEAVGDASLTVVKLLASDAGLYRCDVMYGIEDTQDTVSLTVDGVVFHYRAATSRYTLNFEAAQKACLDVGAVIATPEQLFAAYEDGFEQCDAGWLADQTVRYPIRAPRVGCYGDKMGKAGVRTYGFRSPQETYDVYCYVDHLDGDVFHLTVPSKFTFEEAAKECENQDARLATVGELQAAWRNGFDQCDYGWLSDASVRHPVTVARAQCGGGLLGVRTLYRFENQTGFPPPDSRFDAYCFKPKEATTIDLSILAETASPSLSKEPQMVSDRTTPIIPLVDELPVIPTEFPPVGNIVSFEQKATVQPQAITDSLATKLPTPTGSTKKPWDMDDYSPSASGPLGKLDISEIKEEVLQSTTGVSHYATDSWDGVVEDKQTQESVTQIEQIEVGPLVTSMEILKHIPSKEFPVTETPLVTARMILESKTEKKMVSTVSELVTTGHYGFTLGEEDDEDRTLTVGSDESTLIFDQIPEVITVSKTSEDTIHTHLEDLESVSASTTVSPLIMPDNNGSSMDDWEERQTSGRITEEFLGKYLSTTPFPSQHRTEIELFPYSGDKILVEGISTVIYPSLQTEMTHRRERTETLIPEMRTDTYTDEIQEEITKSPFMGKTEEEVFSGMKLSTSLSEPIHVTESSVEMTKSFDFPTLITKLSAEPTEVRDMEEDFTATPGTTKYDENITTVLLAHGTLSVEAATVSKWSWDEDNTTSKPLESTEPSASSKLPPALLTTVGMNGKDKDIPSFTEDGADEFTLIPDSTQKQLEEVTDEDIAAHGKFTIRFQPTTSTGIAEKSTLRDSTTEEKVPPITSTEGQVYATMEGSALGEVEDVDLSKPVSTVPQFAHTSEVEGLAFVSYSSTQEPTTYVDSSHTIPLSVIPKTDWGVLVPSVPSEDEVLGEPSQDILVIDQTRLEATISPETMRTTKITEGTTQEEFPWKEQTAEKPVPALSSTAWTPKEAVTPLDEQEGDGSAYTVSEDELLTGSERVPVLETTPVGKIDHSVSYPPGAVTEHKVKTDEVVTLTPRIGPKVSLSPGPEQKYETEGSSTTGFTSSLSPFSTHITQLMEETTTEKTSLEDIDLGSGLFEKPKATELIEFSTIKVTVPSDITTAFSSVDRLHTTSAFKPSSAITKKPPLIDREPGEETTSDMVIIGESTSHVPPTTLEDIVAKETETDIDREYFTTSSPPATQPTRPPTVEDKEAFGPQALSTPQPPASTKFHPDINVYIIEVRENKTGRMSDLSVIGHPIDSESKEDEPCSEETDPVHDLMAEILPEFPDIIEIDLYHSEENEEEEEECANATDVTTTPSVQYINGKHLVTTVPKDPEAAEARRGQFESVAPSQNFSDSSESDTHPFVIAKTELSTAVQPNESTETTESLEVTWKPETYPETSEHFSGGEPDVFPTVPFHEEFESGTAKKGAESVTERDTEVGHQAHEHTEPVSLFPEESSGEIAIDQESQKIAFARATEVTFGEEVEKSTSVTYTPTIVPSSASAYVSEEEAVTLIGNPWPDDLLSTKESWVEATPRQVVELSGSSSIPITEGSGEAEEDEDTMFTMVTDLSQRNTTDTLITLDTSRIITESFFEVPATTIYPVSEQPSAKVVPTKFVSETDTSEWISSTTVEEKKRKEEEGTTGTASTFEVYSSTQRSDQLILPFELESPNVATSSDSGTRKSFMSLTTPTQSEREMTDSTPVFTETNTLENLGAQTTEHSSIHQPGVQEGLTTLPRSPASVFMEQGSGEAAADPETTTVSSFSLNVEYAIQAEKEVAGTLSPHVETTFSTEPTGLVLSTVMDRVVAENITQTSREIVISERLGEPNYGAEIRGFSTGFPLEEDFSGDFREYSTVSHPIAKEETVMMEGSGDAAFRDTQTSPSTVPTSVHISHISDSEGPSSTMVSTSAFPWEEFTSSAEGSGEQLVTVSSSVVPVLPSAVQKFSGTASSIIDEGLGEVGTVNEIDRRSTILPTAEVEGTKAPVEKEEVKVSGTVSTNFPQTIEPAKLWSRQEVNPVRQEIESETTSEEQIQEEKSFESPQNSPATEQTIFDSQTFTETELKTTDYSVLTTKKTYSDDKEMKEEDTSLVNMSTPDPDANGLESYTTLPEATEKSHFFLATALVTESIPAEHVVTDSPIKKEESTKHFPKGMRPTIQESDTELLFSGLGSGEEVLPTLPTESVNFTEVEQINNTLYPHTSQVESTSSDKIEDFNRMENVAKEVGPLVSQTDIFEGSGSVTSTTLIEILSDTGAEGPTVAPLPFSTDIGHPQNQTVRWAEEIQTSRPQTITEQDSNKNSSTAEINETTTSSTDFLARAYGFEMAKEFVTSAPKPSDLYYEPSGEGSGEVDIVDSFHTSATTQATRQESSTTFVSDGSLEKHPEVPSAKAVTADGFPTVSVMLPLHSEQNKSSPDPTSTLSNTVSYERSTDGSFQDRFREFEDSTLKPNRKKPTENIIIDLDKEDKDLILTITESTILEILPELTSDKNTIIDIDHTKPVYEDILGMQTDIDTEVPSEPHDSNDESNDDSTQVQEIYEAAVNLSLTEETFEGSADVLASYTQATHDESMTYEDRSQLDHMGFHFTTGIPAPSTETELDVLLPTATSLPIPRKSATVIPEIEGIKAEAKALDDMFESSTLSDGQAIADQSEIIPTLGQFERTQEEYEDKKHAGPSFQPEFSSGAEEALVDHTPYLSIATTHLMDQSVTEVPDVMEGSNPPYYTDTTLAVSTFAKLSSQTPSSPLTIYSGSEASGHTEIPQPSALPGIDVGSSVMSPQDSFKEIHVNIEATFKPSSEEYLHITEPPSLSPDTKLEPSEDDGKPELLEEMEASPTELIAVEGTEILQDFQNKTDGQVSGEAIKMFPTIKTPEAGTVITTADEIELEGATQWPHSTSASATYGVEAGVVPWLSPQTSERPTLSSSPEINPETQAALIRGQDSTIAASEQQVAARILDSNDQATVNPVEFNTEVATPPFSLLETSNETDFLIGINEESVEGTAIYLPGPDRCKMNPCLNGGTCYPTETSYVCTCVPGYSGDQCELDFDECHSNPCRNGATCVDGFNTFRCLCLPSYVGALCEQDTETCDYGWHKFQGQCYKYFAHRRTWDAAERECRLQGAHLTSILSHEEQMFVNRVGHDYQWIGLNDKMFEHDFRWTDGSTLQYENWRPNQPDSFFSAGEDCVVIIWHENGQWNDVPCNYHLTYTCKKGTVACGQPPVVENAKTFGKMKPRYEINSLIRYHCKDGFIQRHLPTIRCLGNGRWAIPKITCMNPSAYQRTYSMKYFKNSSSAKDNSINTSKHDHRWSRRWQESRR

CCCCCCCCCCCCCC(=O)O[C@@H]1[C@@H](C)[C@@]2(O)[C@@H](C=C(CO)C[C@]3(O)C(=O)C(C)=C[C@@H]23)[C@@H]2C(C)(C)[C@]12OC(C)=O [PMA]
ADAMTS-1 message level [1]: induced

recombinant ADAMTS-1
cleavage of peptide substrate, HPLC analysis [2]: Cleavage of the peptide by recombinant ADAMTS-1 has been confirmed by HPLC analysis | size exclusion chromatography of total proteoglycan incubated with or without ADAMTS-1 [3]: In the presence of ADAMTS-1, the size of the large proteoglycan population made up primarily of versican is reduced and the size of the peak corresponding to smaller sized proteoglycan population is increased

B1: ADAMTS-1: metalloproteinase (A Disintegrin-like And Metalloprotease with Thrombospondin type 1 motif), incubated with total proteoglycan (protein)
chain: FVSSHRYVETMLVADQSMAEFHGSGLKHYLLTLFSVAARLYKHPSIRNSVSLVVVKILVIHDEQKGPEVTSNAALTLRNFCNWQKQHNPPSDRDAEHYDTAILFTRQDLCGSQTCDTLGMADVGTVCDPSRSCSVIEDDGLQAAFTTAHELGHVFNMPHDDAKQCASLNGVNQDSHMMASMLSNLDHSQPWSPCSAYMITSFLDNGHGECLMDKPQNPIQLPGDLPGTSYDANRQCQFTFGEDSKHCPDAASTCSTLWCTGTSGGVLVCQTKHFPWADGTSCGEGKWCINGKCVNKTDRKHFDTPFHGSWGMWGPWGDCSRTCGGGVQYTMRECDNPVPKNGGKYCEGKRVRYRSCNLEDCPDNNGKTFREEQCEAHNEFSKASFGSGPAVEWIPKYAGVSPKDRCKLICQAKGIGYFFVLQPKVVDGTPCSPDSTSVCVQGQCVKAGCDRIIDSKKKFDKCGVCGGNGSTCKKISGSVTSAKPGYHDIITIPTGATNIEVKQRNQRGSRNNGSFLAIKAADGTYILNGDYTLSTLEQDIMYKGVVLRYSGSSAALERIRSFSPLKEPLTIQVLTVGNALRPKIKYTYFVKKKKESFNAIPTFSAWVIEEWGECSKSCELGWQRRLVECRDINGQPASECAKEVKPASTRPCADHPCPQWQLGEWSSCSKTCGKGYKKRSLKCLSHDGGVLSHESCDPLKKPKHFIDFCTMAECS
cleavage of large proteoglycan population (versican) (versican): the size of the large proteoglycan peak is diminished
